Experiment [1] concerns the target Alexa 488-labelled, crosslinked recombinant histone octamer (H2A, H2B T112C-Alexa 488, H3 C110A, H4 T71C) (UniProt P06897). Briefly: other fluorescence titration; 5 nM Alexa 488-labelled octamer titrated with NP (pentamer concentration); 150 mM NaCl, 1 mM DTT, 0.1 mg/ml BSA, 20 mM Tris-HCl pH 7.5; ligand-depleted model with two pentamers per octamer; apparent.
The target in experiment [2] is Histone H2A-H2B dimer, natural source (chicken erythrocyte chromatin) (chicken) (UniProt P02263). Put plainly: native gel or EMSA; 8% native PAGE run from the positive to the negative electrode; fixed histones (10 µM H2A-H2B or H3-H4 dimers, 2.5 µM octamer) with increasing tail domain, 150 mM NaCl, 20 mM Tris-HCl pH 7.6, RT, 1 h. Background: A gel shift assay detects complexes by their altered migration in electrophoresis.

Experiment [3] addresses Crosslinked histone octamer (dimethyl suberimidate) (not stated (chicken erythrocyte or recombinant histones)). The experiment is described as above.
The target of experiment [4] is Recombinant nucleoplasmin, full length (rNP) (X. laevis) (UniProt P05221). Briefly: native gel or EMSA; NP alone on 4-16% native PAGE (Figs 2B and S3); pentamers to decamer.

On to “Egg nucleoplasmin (eNP) from X. laevis, natural hyperphosphorylated pentamer (from UniProt P05221 1-200) (natural protein)”, for which the Kd in experiment [1] was determined as 0.04 nM.

For the substance “Phosphomimetic C-terminal tail domain of nucleoplasmin (rNP113–200-4D) (from UniProt P05221 113-200) (domain or fragment)”, in experiment [2], the stoichiometry N (tail domain/H2A-H2B dimer) amounted to 1. Also, the stoichiometry N (C-terminal tails per crosslinked octamer) in experiment [3] turned out to be 4.

Turning to “Recombinant nucleoplasmin lacking the last 50 residues (rNPΔ150–200) (from UniProt P05221 1-149) (domain or fragment)”, the Kd in experiment [1] worked out at 0.27 nM.

Regarding “Recombinant nucleoplasmin, full length (rNP) (from UniProt P05221 1-200) (natural protein)”, the stoichiometry N in experiment [4] was found to be 10.

The term stoichiometry N denotes the number of molecules, sites or subunits per partner or assembly.

For the origin of these results see publication PMC6602930.
